Patent US20120208238A1

Key:
[1] = target: soluble human FcγRIIa^R131-GST (human) (UniProt P12318); assay: flow cytometry of E. coli spheroplasts displaying the full length IgG, 20 nM FcγRIIa-GST-Alexa488 in the presence of 100 nM unlabelled FcγRIIb-GST
[2] = target: soluble human FcγRIIb-GST (human) (UniProt P31994); assay: SPR (BIAcore 3000), antibody on CM5 chip, soluble dimeric receptor-GST injected, bivalent analyte model
[3] = target: soluble human FcγRIIa^R131-GST (human) (UniProt P12318); assay: as above
[4] = target: soluble human FcγRIIa^R131-GST (human) (UniProt P12318); assay: SPR; ratio of the Kd for FcγRIIb-GST over that for FcγRIIa-GST

Chain of soluble human FcγRIIb-GST (human) (P31994 43-217): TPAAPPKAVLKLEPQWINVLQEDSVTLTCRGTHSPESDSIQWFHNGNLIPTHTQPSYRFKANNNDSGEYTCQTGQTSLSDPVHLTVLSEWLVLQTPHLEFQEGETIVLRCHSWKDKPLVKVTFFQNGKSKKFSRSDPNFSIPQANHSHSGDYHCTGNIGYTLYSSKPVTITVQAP
Chain of soluble human FcγRIIa^R131-GST (human) (P12318 34-217 H167R): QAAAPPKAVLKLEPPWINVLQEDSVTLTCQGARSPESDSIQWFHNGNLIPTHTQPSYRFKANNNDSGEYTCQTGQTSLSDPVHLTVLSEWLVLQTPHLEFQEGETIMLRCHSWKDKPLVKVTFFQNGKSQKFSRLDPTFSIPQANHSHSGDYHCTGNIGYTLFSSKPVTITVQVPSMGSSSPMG

Binder | FACS mean value [1] | M (mean fluorescence intensity) [1] | Kd [2] [nM] | koff [2] [s⁻¹] | kon [2] [M⁻¹ s⁻¹] | Kd [3] [nM] | koff [3] [s⁻¹] | kon [3] [M⁻¹ s⁻¹] | KD2b/KD2a [4]
aglycosylated Fc1001 trastuzumab (antibody, part only; not given: Fab (trastuzumab), IgG1, not shown: another chain or arm of the molecule, aglycosylated (T299A)) Fc: DKTHTCPPCPAPELLGGPSVFLFPPKPKDTLMISRTPEVTCVVVDVSPEDPEVKFNWYVDGVEVHNAKTKPREKQYNGAYRVVSVLTVLHQDWLNGKEYKCKVSNKALPAPIEKTISKAKGQPREPQVYTLPPSRDELTKSQVSLTCLVKGFYPSDIAVEWVSNGQPENNYKTTPPVLDSDGSFFLYSKLTVDKSRWQQGNVFSCSVLHEALHNHYTQKSLSLSPGK | 409 | 413 | 975 | 0.0194 | 19900 | 102 | 0.00352 | 34600 | 9.6
aglycosylated Fc1003 trastuzumab (antibody, part only; not given: Fab (trastuzumab), IgG1, not shown: another chain or arm of the molecule, aglycosylated (T299A)) Fc: DKTHTCPPCPAPELLGGPSVFLFPPKPKDTLMISRTPEVTCVVVDVSHEDPEVKFNWYVDGVEVHNAKTKPREEQYNGAYRVVSVLTVLHQDWLNGKEYKCKVSNKALPAPIEKTISKAKGQPREPQVYTLPPSRDELTKNQVSLTCLVKGFYPSDIAVEWVSNGQPENNYETTPPMLDSDGSFFLYSKLTVDKSRWQQGNVFSCSVLHEALHNHYTQKSLSLSPGK | 277 |  | 1380 | 0.00866 | 6260 | 389 | 0.0079 | 20300 | 3.56
